One molecule from article PMC11182015, “Cytosolic RNA binding of the mitochondrial TCA cycle enzyme malate dehydrogenase” can be followed below.

This series has as its target T1, MDH2 preprotein (malate dehydrogenase 2, mitochondrial), with N-terminal MTS (Homo sapiens, UniProt P40926 1-338).
T1 sequence: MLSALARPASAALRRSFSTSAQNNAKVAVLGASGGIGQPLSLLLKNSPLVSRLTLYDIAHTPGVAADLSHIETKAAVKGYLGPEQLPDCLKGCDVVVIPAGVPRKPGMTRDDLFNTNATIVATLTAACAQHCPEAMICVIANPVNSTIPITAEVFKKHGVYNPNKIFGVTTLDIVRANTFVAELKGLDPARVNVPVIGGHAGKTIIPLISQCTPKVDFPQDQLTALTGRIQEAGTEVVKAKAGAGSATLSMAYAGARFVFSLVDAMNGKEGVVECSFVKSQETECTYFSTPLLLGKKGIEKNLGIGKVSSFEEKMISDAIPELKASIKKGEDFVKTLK
The series can be described thus: EMSA; RNA 10 nM; EMSA: 10 mM Tris-HCl pH 7.5, 150 mM NaCl, 20% glycerol, 0.5 mM DTT, 5 mM MgCl2, 0.01 ug/uL BSA, 25 C 20 min; 10 nM Cy5-RNA; native 4-15% Tris-glycine gel. As to conditions: protein: recombinant; tags: C-terminal Strep-II; label: Cy5. For orientation: A gel shift assay detects complexes by their altered migration in electrophoresis.

One may read the Kd as a measure of binding affinity in units of concentration. Regarding AUAUUUAGCUCAGGCCCGUGGCGCC (ssRNA) [RPS23 5'-UTR control probe], the dissociation constant (Kd) worked out at 1.5 µM.
